Test results as given in the supplement of paper PMC11136658.

Tested on: peptide library, one residue held at a place counted from the Y acceptor
Assay: relative phosphorylation of the sub-library (ratio to the mean residue at this position); higher = residue favoured
In short: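 Every value reflects phosphorylation relative to the mean randomized residue. The sum of the 18 randomized residues, or 16 in the Ser/Thr-free library, served to normalize intensities at each position, which were then multiplied by that number. Intensities came from phosphorimaging with ImageQuant of biotinylated Tyr-centred peptides captured on streptavidin membranes after 90 min with purified recombinant kinases and 50 μM ATP plus γ-32P-ATP.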

Chain of LCK, construct: Full length, human (P06239 whole entry, looked up): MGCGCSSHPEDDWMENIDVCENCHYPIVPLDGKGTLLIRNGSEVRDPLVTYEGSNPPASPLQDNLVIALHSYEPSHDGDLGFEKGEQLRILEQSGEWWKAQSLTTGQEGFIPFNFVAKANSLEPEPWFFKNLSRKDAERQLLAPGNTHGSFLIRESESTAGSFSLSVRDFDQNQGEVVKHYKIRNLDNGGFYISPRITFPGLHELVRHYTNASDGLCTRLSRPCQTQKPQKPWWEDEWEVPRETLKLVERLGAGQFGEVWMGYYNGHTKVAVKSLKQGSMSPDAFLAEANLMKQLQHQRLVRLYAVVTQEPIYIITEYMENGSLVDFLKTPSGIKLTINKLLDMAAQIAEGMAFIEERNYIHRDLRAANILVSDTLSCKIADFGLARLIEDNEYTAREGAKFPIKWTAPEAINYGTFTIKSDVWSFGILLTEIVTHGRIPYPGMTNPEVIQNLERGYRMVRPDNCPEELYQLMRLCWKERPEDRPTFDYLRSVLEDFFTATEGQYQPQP
Chain of KIT, construct: aa544-end, human (P10721 544-976, looked up): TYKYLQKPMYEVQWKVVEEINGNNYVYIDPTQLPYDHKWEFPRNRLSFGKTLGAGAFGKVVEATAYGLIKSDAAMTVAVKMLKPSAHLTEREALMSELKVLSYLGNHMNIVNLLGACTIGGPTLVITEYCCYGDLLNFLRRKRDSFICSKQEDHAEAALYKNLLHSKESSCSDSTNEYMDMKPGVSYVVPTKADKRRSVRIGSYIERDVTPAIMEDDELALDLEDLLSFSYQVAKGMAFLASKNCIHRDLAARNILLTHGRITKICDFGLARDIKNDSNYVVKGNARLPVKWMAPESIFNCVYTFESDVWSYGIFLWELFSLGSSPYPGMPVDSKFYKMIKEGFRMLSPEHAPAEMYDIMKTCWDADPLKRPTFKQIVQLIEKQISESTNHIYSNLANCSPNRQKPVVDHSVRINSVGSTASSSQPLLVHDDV

KIT, construct: aa544-end, human (from UniProt P10721)
relative phosphorylation
Conditions	at +1	at +2	at +3	at +4	at +5	at -1	at -2	at -3	at -4	at -5
A fixed	0.767	0.817	0.577	0.912	1.01	0.799	1.12	1.03	1.1	1.01
D fixed	0.38	0.893	0.392	0.969	0.604	1.62	1.26	1.51	1.33	1.22
E fixed	0.666	1.19	0.276	0.92	0.618	1.36	1.45	1.76	1.51	1.04
F fixed	1.99	1.1	2.08	1.13	1.9	1.06	0.614	0.837	0.973	0.976
G fixed	0.387	0.485	0.529	1.03	1.16	0.521	1.19	1.1	1.17	1.22
H fixed	1.82	0.971	0.859	1.14	0.933	1.39	0.967	0.973	0.913	1.04
I fixed	1.78	0.95	2.43	0.817	0.793	1.86	0.881	0.703	0.892	0.869
K fixed	0.694	0.803	0.588	1.05	0.596	0.494	0.669	0.754	0.806	1.03
L fixed	1.18	1.15	1.76	0.826	0.911	1.06	0.867	0.707	0.801	0.849
M fixed	1.17	1.02	1.42	0.903	0.949	0.834	0.763	0.764	0.865	0.848
N fixed	0.554	1.05	0.581	0.952	0.811	1.13	1.15	1.18	0.92	1.07
P fixed	0.495	0.925	1.1	0.96	1.48	0.883	1.26	1.07	1.12	1.13
Q fixed	1.12	1.05	0.591	1.09	0.773	0.87	1.15	1.01	1.05	0.891
R fixed	0.761	1.04	0.871	1.26	0.822	0.487	0.857	0.774	0.929	0.958
S fixed	0.649	0.88	0.53	0.99	0.904	0.644	1.14	1.09	0.934	0.983
T fixed	0.834	0.943	0.706	0.87	0.953	0.952	1.08	1.03	0.834	0.985
V fixed	1.65	1.02	1.65	0.868	0.776	1.37	0.909	0.756	0.775	0.797
W fixed	1.11	1.71	1.07	1.32	2.01	0.667	0.676	0.95	1.09	1.1
pThr fixed	0.919	1.81	0.344	0.573	0.504	1.43	1.17	1.69	1.35	1.26
pTyr fixed	2.18	2	0.413	1.16	0.73	4.18	1.59	1.89	1.48	1.4

LCK, construct: Full length, human (from UniProt P06239)
relative phosphorylation
Conditions	at +1	at +2	at +3	at +4	at +5	at -1	at -2	at -3	at -4	at -5
A fixed	1.69	1.08	0.69	0.928	1.14	0.73	1.02	0.875	1.08	1.06
D fixed	1.03	0.616	0.245	0.484	0.691	0.877	1.4	1.77	1.4	1.28
E fixed	1.58	1.07	0.211	0.557	0.532	1.22	1.68	2.02	1.63	1.13
F fixed	0.615	0.776	1.65	0.931	1.28	1.06	0.572	0.895	0.822	0.96
G fixed	2.95	0.934	0.904	1.18	1.14	0.416	1.35	1.1	1.25	1.17
H fixed	0.786	0.711	1.06	1.02	0.844	0.757	0.99	1.01	0.975	0.962
I fixed	0.738	0.932	1.92	0.85	0.639	2.81	0.663	0.549	0.792	0.836
K fixed	0.271	0.936	0.752	1.66	1.07	0.308	0.641	0.562	0.665	0.852
L fixed	0.686	0.754	1.67	0.887	0.942	1.93	0.796	0.731	0.921	0.866
M fixed	1.37	0.795	0.932	1.03	0.91	0.894	0.726	0.73	0.792	0.878
N fixed	0.54	0.934	0.429	0.801	0.92	0.431	1.25	1.42	1.11	1.24
P fixed	0.225	1.33	0.84	1.07	1.31	0.833	1.32	1.01	1.2	1.23
Q fixed	0.979	0.954	0.45	1	0.937	0.538	1.2	1.01	1.19	1.15
R fixed	0.438	1.2	1.55	1.69	1.34	0.238	0.696	0.637	0.82	0.98
S fixed	1.11	1.31	0.651	0.911	1.28	0.405	1.22	0.982	0.885	0.897
T fixed	0.821	1.36	0.697	0.849	0.968	1.32	0.982	0.892	0.735	0.841
V fixed	0.868	1.2	1.33	0.846	0.89	2.65	0.749	0.693	0.749	0.703
W fixed	1.3	1.11	2.02	1.3	1.16	0.584	0.748	1.11	0.989	0.971
pThr fixed	0.786	1.27	0.195	0.27	0.448	3.03	1.47	1.18	1.13	1.17
pTyr fixed	1.22	1.24	0.303	0.289	0.434	1.21	1.16	1.59	1.64	0.861
